Measurements as given in PMC11969024 (2025).

B1: peptide HD2 (from tick evasin EVA4) / CCL19 (biotinylated, synthetic) (parent complex)
chain 1: EEDDYTAYAPLTCYFT
chain 2: GTNDAEDCCLSVTQKPIPGYIVRNFHYLLIKDGCRVPAVVFTTLRGRQLCAPPDQPWVERIIQRLQRTSAKMKRRSS
B2: peptide HD2 (from tick evasin EVA4) / CCL17 (biotinylated, synthetic) (parent complex)
chain 1: EEDDYTAYAPLTCYFT
chain 2: ARGTNVGRECCLEYFKGAIPLRKLKTWYQTSEDCSRDAIVFVTVQGRAICSDPNNKRVKNAVKYLQSLERS

Variants of: B1

Variant	enrichment
chain 1 Y14K	-5.55 log2 (difference from the parental peptide)
chain 1 Y14L	-9.46 log2 (difference from the parental peptide)

Variants of: B2

Variant	enrichment
chain 1 E2Q	-0.416 log2 (difference from the parental peptide)
chain 1 E2A	-0.532 log2 (difference from the parental peptide)
chain 1 E2R	-1.35 log2 (difference from the parental peptide)
chain 1 E2L	-1.6 log2 (difference from the parental peptide)
chain 1 E2V	-1.03 log2 (difference from the parental peptide)
chain 1 L11M	3.11 log2 (difference from the parental peptide)
chain 1 L11G	-8.35 log2 (difference from the parental peptide)
chain 1 L11C	0.521 log2 (difference from the parental peptide)
chain 1 A7K	3.56 log2 (difference from the parental peptide)
chain 1 A7I	-4.17 log2 (difference from the parental peptide)
chain 1 A7R	3.96 log2 (difference from the parental peptide)
chain 1 A7L	-0.26 log2 (difference from the parental peptide)
chain 1 A7Q	1.91 log2 (difference from the parental peptide)
chain 1 A7P	1.3 log2 (difference from the parental peptide)
chain 1 T12F	0.112 log2 (difference from the parental peptide)
chain 1 T12R	-1.85 log2 (difference from the parental peptide)
chain 1 T12A	-4.61 log2 (difference from the parental peptide)
chain 1 T12L	0.297 log2 (difference from the parental peptide)
chain 1 T12E	-5.73 log2 (difference from the parental peptide)
chain 1 Y14M	-4.32 log2 (difference from the parental peptide)
chain 1 Y14H	-3.18 log2 (difference from the parental peptide)
chain 1 Y14W	-0.976 log2 (difference from the parental peptide)
chain 1 Y14F	-0.272 log2 (difference from the parental peptide)
chain 1 Y14K	-7.27 log2 (difference from the parental peptide)
chain 1 Y14S	-5.6 log2 (difference from the parental peptide)

Variant	enrichment
chain 1 Y14V	-3.57 log2 (difference from the parental peptide)
chain 1 Y14G	-6.43 log2 (difference from the parental peptide)
chain 1 Y14Q	-4.69 log2 (difference from the parental peptide)
chain 1 Y14I	-2.85 log2 (difference from the parental peptide)
chain 1 T16H	0.123 log2 (difference from the parental peptide)
chain 1 T16K	0.193 log2 (difference from the parental peptide)
chain 1 T16L	0.451 log2 (difference from the parental peptide)
chain 1 C13R	-10.7 log2 (difference from the parental peptide)
chain 1 C13E	-7.45 log2 (difference from the parental peptide)
chain 1 C13Y	-5.68 log2 (difference from the parental peptide)
chain 1 C13L	-6.33 log2 (difference from the parental peptide)
chain 1 C13P	-6.7 log2 (difference from the parental peptide)
chain 1 D3G	-4.23 log2 (difference from the parental peptide)
chain 1 D3V	-5.2 log2 (difference from the parental peptide)
chain 1 D3K	-3.46 log2 (difference from the parental peptide)
chain 1 D3I	-4.4 log2 (difference from the parental peptide)
chain 1 D3N	-1.74 log2 (difference from the parental peptide)
chain 1 D3P	-2.92 log2 (difference from the parental peptide)
chain 1 Y5C	-5.02 log2 (difference from the parental peptide)
chain 1 Y5L	-3.76 log2 (difference from the parental peptide)
chain 1 Y5D	-5.57 log2 (difference from the parental peptide)
chain 1 Y5V	-6.56 log2 (difference from the parental peptide)
chain 1 A9F	-8.26 log2 (difference from the parental peptide)
chain 1 A9H	-5.14 log2 (difference from the parental peptide)
chain 1 A9M	-5.43 log2 (difference from the parental peptide)

Variant	enrichment
chain 1 F15S	-0.792 log2 (difference from the parental peptide)
chain 1 F15W	-1.65 log2 (difference from the parental peptide)
chain 1 F15C	-5.94 log2 (difference from the parental peptide)
chain 1 F15E	-1.17 log2 (difference from the parental peptide)
chain 1 F15D	-0.947 log2 (difference from the parental peptide)
chain 1 F15I	0.435 log2 (difference from the parental peptide)
chain 1 T6D	1.63 log2 (difference from the parental peptide)
chain 1 T6Q	0.398 log2 (difference from the parental peptide)
chain 1 T6E	1.53 log2 (difference from the parental peptide)
chain 1 T6N	0.737 log2 (difference from the parental peptide)
chain 1 T6I	-6.22 log2 (difference from the parental peptide)
chain 1 T6F	-2.91 log2 (difference from the parental peptide)
chain 1 T6W	0.392 log2 (difference from the parental peptide)
chain 1 P10Y	-6.08 log2 (difference from the parental peptide)
chain 1 E1H	-0.323 log2 (difference from the parental peptide)
chain 1 E1S	0.17 log2 (difference from the parental peptide)
chain 1 E1R	-1.72 log2 (difference from the parental peptide)
chain 1 E1P	-1.24 log2 (difference from the parental peptide)
chain 1 E1F	-1.75 log2 (difference from the parental peptide)
chain 1 D4H	-6.29 log2 (difference from the parental peptide)
chain 1 D4G	-4.74 log2 (difference from the parental peptide)
chain 1 D4L	-4.56 log2 (difference from the parental peptide)
chain 1 D4A	-3.66 log2 (difference from the parental peptide)
